Consider three molecules from paper doi:10.1101/2020.06.18.159665 (bioRxiv, 2020).

Several values for one entry are separate records, joined by “and”; a condition that tells them apart may be missing. Identical values can stand only once.

Test [1] deals with biotinylated 6X-His-GSK3β (human, UniProt P49841 1-420, biotin (site not stated)). Briefly: BLI. (In general: In BLI a coated tip is dipped into the sample, and binding shifts an interference pattern.)
The target in test [2] is N- and C-terminal double His-tagged GSK3β (His-GSK3β-His) (human, UniProt P49841 1-420). Briefly: SPR.
Sequence of N- and C-terminal double His-tagged GSK3β (His-GSK3β-His) (P49841 whole entry): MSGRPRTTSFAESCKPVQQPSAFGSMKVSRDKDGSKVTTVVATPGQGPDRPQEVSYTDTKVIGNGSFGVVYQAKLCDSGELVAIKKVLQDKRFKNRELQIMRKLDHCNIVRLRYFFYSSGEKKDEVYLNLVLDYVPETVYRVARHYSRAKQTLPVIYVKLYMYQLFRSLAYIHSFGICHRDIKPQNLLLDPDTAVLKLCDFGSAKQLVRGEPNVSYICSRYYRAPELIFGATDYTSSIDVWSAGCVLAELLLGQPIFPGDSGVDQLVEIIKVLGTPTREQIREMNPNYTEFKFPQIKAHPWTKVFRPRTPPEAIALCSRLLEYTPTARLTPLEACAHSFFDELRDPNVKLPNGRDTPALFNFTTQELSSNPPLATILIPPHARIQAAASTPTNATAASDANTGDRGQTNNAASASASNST
The target of test [3] is 6X-HisGSK3β purchased from Signalchem (G09-10H-05) (human, UniProt P49841 1-420). In words: MST.
Sequence of 6X-HisGSK3β purchased from Signalchem (G09-10H-05) (P49841 whole entry): as above

Sequence of biotinylated 6X-His-GSK3β (P49841 whole entry): as above

The Kd is the free concentration of one partner at which half of the binding sites on the other are occupied at equilibrium, for simple one-to-one binding. A lower Kd goes with a tighter complex. Molecule VEPQKFAEELIHRLEAVQ [AxinGID] yielded a Kd in test [1] of 63.6 µM.
What is called koff is a measure of how fast the partners let go of each other. What is called kon is the rate constant with which the complex forms. Lower therefore signals slower complex formation. Take PEVPPTPPGSHSAFTSSFSFIRLSLGSAGERGEAEGCPPSREAE (peptide, UniProt Q9NRI5 193-236, looked up) [hDISCtide, 44-mer peptide derived from human DISC1 (residues 193-236)]: in test [2], the koff is 0.000249 s⁻¹ and the on-rate (kon) amounted to 495 ± 31.4 M⁻¹ s⁻¹. The molecule also yielded a dissociation constant (Kd) in test [3] of 5.7 µM.
Take DPHRLLQQLVLSGNLIKEAVRRLHS [FRATide]: the Kd in test [2] is 1.9 µM and 3.2 µM; in test [1] it was 3.6 µM and 3.8 µM.
